Positions count from the first letter of the chain named. Ends that are not written are not given here.
What was measured:
wt-AR = biological target: T1, wt-AR (Homo sapiens, UniProt P10275); assay: mammalian two-hybrid (MM2H) assay, peptide interaction with wt-AR; assay type: cell-based; settings: PC-3 cells, Gal-4 = 1; for wt-AR DHT, peptide-AR interaction in MM2H assay: DHT = 10 nM
T1 construct: expressed in transfected cells; host or cells: PC-3
T1 sequence (P10275 1-920): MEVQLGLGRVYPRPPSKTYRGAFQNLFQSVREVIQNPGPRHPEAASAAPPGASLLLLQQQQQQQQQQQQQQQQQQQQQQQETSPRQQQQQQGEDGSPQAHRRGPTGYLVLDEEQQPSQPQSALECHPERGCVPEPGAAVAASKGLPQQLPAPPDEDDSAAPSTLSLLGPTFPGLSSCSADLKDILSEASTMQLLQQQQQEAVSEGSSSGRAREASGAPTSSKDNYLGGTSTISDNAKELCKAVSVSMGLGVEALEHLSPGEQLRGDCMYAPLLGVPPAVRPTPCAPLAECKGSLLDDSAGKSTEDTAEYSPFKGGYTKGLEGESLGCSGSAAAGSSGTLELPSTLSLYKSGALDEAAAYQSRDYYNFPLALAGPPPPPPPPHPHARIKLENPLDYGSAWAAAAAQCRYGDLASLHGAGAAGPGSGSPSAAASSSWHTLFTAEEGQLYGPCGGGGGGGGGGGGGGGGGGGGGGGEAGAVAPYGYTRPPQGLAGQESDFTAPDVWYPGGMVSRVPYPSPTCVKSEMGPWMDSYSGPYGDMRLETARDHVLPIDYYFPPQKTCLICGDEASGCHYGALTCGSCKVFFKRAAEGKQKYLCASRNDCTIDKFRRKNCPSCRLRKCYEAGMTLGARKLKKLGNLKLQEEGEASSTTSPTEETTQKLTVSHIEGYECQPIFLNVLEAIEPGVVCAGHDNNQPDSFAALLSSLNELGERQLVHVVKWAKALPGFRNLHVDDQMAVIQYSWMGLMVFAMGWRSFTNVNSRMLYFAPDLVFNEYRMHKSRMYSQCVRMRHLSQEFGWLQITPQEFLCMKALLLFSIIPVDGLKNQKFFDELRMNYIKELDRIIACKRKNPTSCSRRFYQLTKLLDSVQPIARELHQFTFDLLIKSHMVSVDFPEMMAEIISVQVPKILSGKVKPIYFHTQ
From the text: (§1) Using the phage display technique, we observed enrichment of FxxFY motif-containing peptides in CDX-W741L AR LBD screening. Peptide-AR interactions were further validated with the mammalian two-hybrid assay. […] The majority of these peptides additionally interacted with W741L-AR in the presence of bicalutamide. Protein database searches led to the identification of receptor-interacting protein kinase-1 (RIPK1) as a FxxFY motif-containing protein (^285FRPFY^289). RIPK1 is a kinase that plays a crucial role in inflammation and cell death. We hypothesized that RIPK1 is an AR-interacting candidate protein and the FxxFY motif is involved in mediating interactions with AR. To examine this theory, we tested the short FxxFY-containing peptide in a mammalian two-hybrid assay. […] In interacting domain mapping, the FxxFY motif of RIPK1 influenced binding to AR in the GST pull-down assay, mediating AR interactions predominantly through DBD-LBD, as depicted in Figure 1B. […] RIPK1 contains an amino-terminal kinase domain, an intermediate domain and a carboxy-terminal death domain [17]. […] We further examined tissue expression of RIPK1 in the prostate gland via immunohistochemical staining. As shown in Figure 1E and 1F, RIPK1 was enriched in benign prostate hyperplasia and non-tumor areas, but not the tumor area. In view of the collective data, we propose that RIPK1 is a bona fide AR coregulator.
(§2) The assay procedures were performed as described previously. The PC-3 cell line was used for the mammalian two-hybrid and reporter gene assays.

W741L-AR = biological target: T2, W741L-AR (Homo sapiens, UniProt P10275, W742L); assay: mammalian two-hybrid (MM2H) assay, peptide interaction with W741L-AR; assay type: cell-based; settings: PC-3 cells, Gal-4 = 1; for W741L-AR CDX, peptide-AR interaction in MM2H assay: CDX = 10 µM
T2 construct: expressed in transfected cells; host or cells: PC-3
T2 sequence (P10275 1-920 W742L): T1 sequence (P10275 1-920) with W742L
From the text: as §1, §2

| Substance | wt-AR DHT, peptide-AR interaction in MM2H assay (wt-AR) | wt-AR Ethanol, peptide-AR interaction in MM2H assay (wt-AR) | W741L-AR CDX, peptide-AR interaction in MM2H assay (W741L-AR) | W741L-AR Ethanol, peptide-AR interaction in MM2H assay (W741L-AR) |
| --- | --- | --- | --- | --- |
| #3-18: positive control peptide NTNA-FSRLF-YPS (NTNAFSRLFYPS; also: fused to Gal4 DNA-binding domain, end not given here) [reference compound] | 590 | 10 | 128 | 9 |
| C8-FY: phage display screened peptide GD-FKSFY-LATTW (GDFKSFYLATTW; also: fused to Gal4 DNA-binding domain, end not given here) | 484 | 17 | 86 | 2 |
| CA9-FY: phage display screened peptide SL-FTSFY-TGSGS (SLFTSFYTGSGS; also: fused to Gal4 DNA-binding domain, end not given here) | 1,517 | 20 | 190 | 5 |
| C315-FY: phage display screened peptide APSLNR-FATFY-H (APSLNRFATFYH; also: fused to Gal4 DNA-binding domain, end not given here) | 6 | 1 | 2 | 1 |
| C4-FY: phage display screened peptide SPL-FSSFY-HART (SPLFSSFYHART; also: fused to Gal4 DNA-binding domain, end not given here) | 340 | 4 | 114 | 1 |
| CA-10-FY: phage display screened peptide EHSM-FHSFY-VQG (EHSMFHSFYVQG; also: fused to Gal4 DNA-binding domain, end not given here) | 277 | 12 | 14 | 4 |
| C1-FY: phage display screened peptide SYT-FNQFY-YSTA (SYTFNQFYYSTA; also: fused to Gal4 DNA-binding domain, end not given here) | 680 | 19 | 511 | 8 |
| RIP-p: short peptide of novel AR coregulator candidate RIPK1, GIEEK-FRPFY-LSQLE (GIEEKFRPFYLSQLE; also: fused to Gal4 DNA-binding domain (not in chain)) | 159 | 2 | 554 | 12 |
| C414-FY: phage display screened peptide NPSSM-FEKFY-LR (NPSSMFEKFYLR; also: fused to Gal4 DNA-binding domain, end not given here) | 2,653 | 10 | 532 | 2 |
| C411-FY: phage display screened peptide NDTPVK-FAHFY-H (NDTPVKFAHFYH; also: fused to Gal4 DNA-binding domain, end not given here) | 3 | 7 | 3 | 2 |
| CON-1: negative control peptide MYKP-HNHHQ-TSS (MYKPHNHHQTSS; also: fused to Gal4 DNA-binding domain (not in chain)) [reference compound] | 1 | 1 | 1 | 1 |
| C412-FY: phage display screened peptide APSDTY-FQRFY-R (APSDTYFQRFYR; also: fused to Gal4 DNA-binding domain, end not given here) | 6 | 12 | 2 | 1 |

Reference: article PMC5642495, “Characterization of a novel androgen receptor (AR) coregulator RIPK1 and related chemicals that suppress AR-mediated prostate cancer growth via peptide and chemical screening” (Oncotarget, 2017)
